We go through one molecule from paper doi:10.1101/2024.09.06.611644 (bioRxiv, 2024).

In this assay the target is wild-type AC fused to GFP (AC-GFP) (GFP moiety: Aequorea victoria …, UniProt P42212 = GFP). Briefly: two-hybrid.

B1: CaM-V9A fusion expressed from pK1Cam-V9A or pK2Cam-V9A (VHH)
VHH: DVQLQESGGGSVQAGGSLRLSCAASGDTFSSYSMAWFRQAPGKECELVSNILRDGTTTYAGSVKGRFTISRDDAKNTVYLQMVNLKSEDTARYYCAADSGTQLGYVGAVGLSCLDYVMDYWGKGTQVTVSS
Turning to B1, the binding result is reported as “binds”.
